Among the data in paper PMC3267840 are Km, kcat and kcat/Km values, retold here.

What all share (test): purified protein
The subject of one data set is CC(=O)NCCc1ccc(O)c(O)c1. The class given is biochemical, Tribolium castaneum. Conditions: pH 5.5, 0.1 M sodium acetate.
Data set [1] relates to NCCC(=O)NCCc1ccc(O)c(O)c1. The data set is classed as biochemical, Tribolium castaneum. Conditions: pH 5.5, 0.1 M sodium acetate.
Another data set concerns NCCc1ccc(O)c(O)c1. The class given is biochemical, Tribolium castaneum. As to conditions: pH 6.0, 0.1 M Mes.
For another data set, the system named is Oc1ccc(O)cc1. The class given is biochemical, Tribolium castaneum. Conditions: pH 5.5, 0.1 M sodium acetate (pH optimum not determined).
In another data set the test system is Oc1ccccc1O. The class given is biochemical, Tribolium castaneum. Conditions: pH 5.5, 0.1 M sodium acetate (pH optimum not determined).
Substrate in data set [2]: CC(=O)NCCc1ccc(O)c(O)c1
The class given is biochemical, Tribolium castaneum. As to conditions: pH 5.5, 0.1 M sodium acetate. The source holds these as a separate data set.

Substrate in data set [3]: NCCC(=O)NCCc1ccc(O)c(O)c1
The data set is classed as biochemical, Tribolium castaneum. As to conditions: pH 5.5, 0.1 M sodium acetate. The source holds these as a separate data set.

Substrate in data set [4]: NCCc1ccc(O)c(O)c1
The data set is classed as biochemical, Tribolium castaneum. As to conditions: pH 5.5, 0.1 M sodium acetate.

Substrate in data set [5]: Oc1ccc(O)cc1
The data set is classed as biochemical, Tribolium castaneum. As to conditions: pH 5.5, 0.1 M sodium acetate (pH optimum not determined). This is another data set of the same source.

Substrate in data set [6]: Oc1ccccc1O
The class given is biochemical, Tribolium castaneum. As to conditions: pH 5.5, 0.1 M sodium acetate (pH optimum not determined). This is another data set of the same source.

Substrate in data set [7]: CC(=O)NCCc1ccc(O)c(O)c1
The data set is classed as biochemical, Anopheles gambiae.

Substrate in data set [8]: NCCC(=O)NCCc1ccc(O)c(O)c1
The class given is biochemical, Anopheles gambiae. As to conditions: pH 5.5, 0.1 M sodium acetate.

Substrate in data set [9]: NCCc1ccc(O)c(O)c1
The class given is biochemical, Anopheles gambiae.

Substrate in data set [10]: Oc1ccc(O)cc1
The data set is classed as biochemical, Anopheles gambiae. As to conditions: pH 5.5, 0.1 M sodium acetate (pH optimum not determined).

Substrate in data set [11]: Oc1ccccc1O
The class given is biochemical, Anopheles gambiae. Conditions: pH 5.5, 0.1 M sodium acetate (pH optimum not determined).

Substrate in data set [12]: N[C@@H](Cc1ccc(O)c(O)c1)C(=O)O
The class given is biochemical, Manduca sexta. As to conditions: pH 6.0, 0.1 M Mes, 0.1 % cetylpyridinium as activator.

For “TcLac2B (Tribolium castaneum; G182D/T93A)”, the Michaelis constant (Km) with CC(=O)NCCc1ccc(O)c(O)c1 came to 600 µM; in data set [1], 4000 µM; with NCCc1ccc(O)c(O)c1 it was 2000 µM; in the data set on Oc1ccc(O)cc1, 2000 µM; in the data set on Oc1ccccc1O, 12000 µM. Besides, the kcat in the data set with CC(=O)NCCc1ccc(O)c(O)c1 turned out to be 5.5 s⁻¹; in data set [1], 18.8 s⁻¹; in the data set with NCCc1ccc(O)c(O)c1, 7.5 s⁻¹; in the data set on Oc1ccc(O)cc1, 9.2 s⁻¹; in the data set with Oc1ccccc1O, 10.8 s⁻¹. For the same molecule, the kcat/Km in the data set on CC(=O)NCCc1ccc(O)c(O)c1 is 9170 M⁻¹ s⁻¹; in data set [1], 4700 M⁻¹ s⁻¹; in the data set with NCCc1ccc(O)c(O)c1, 3750 M⁻¹ s⁻¹; in the data set on Oc1ccc(O)cc1 it was 4600 M⁻¹ s⁻¹; in the data set on Oc1ccccc1O, 900 M⁻¹ s⁻¹.

B1: TcLac2A (Tribolium castaneum) (protein)
chain: VRAPGAKKKVGPIDQSAAAASWHDFDNSDFFQSEHAVIQTHPSIGGGPRFSSGGGRKAWKHLDFRNSAAAELLKNPSLSSPDECARACREGEPPRICYYHFTLELYTVLGAACQVCTPNATNTVWSHCQCVLADGVERGILTANRMIPGPSIQVCEGDKVVIDVENHIEGNEVTLHWHGVWQRGSQYYDGVPFVTQCPIQQGNTFRYQWIAGNAGTHFWHAHTGLQKMDGLYGSVVIRQPPAKDPNSHLYDYDLTTHVMLLSDWMHEDATERFPGRLAVNTGQDPESLLINGKGQFRDPNTGFMTNTPLEVFTITPGRRYRFRMINSFASVCPAQLTIQGHDLTLIATDGEPVHPVRVNTIISFSGERYDFVINADQTPGAYWIQLRGLGECGIRRVQQLGILRYAKGPYQPSQAPPTYDYGIPQGVVLNPLDARCNEIRPDAICVSQLKNALSIDKGILREKPDVKIFLPFRFHIYTPEDLFAPNTYNRHLVAPNGDHVISLIDEISYMAPPAPLISQYDDIDPQQFCNGDNRPADCQQNCMCTHKVDIPLNAIVEIVLVDEVQQPNLSHPFHLHGYAFNVIGIGRSPDQNVKKINLKHALDLDRQGLLHRQFNLPPAKDTIAVPNNGYVVLRLRANNPGFWLFHCHFLFHIVIGMNLVLQVGTHADLPPVPPNFPTCGDHVPEINSNPNLV
For the molecule B1, the Km worked out at 700 µM in the data set “purified protein [2]”; 1000 µM in the data set “purified protein [3]”; 800 µM in the data set “purified protein [4]”; 1000 µM in the data set “purified protein [5]”; 6000 µM in the data set “purified protein [6]”. In addition, the catalytic constant (kcat) in the data set “purified protein [2]” worked out at 2.45 s⁻¹; in “purified protein [3]” it was 2.75 s⁻¹; in “purified protein [4]”, 0.683 s⁻¹; in the data set “purified protein [5]” it was 3.55 s⁻¹; in “purified protein [6]”, 4.03 s⁻¹. Further, the specificity constant (kcat/Km) amounted to 3500 M⁻¹ s⁻¹ in the data set “purified protein [2]”; 2750 M⁻¹ s⁻¹ in the data set “purified protein [3]”; 850 M⁻¹ s⁻¹ in the data set “purified protein [4]”; 3550 M⁻¹ s⁻¹ in the data set “purified protein [5]”; 667 M⁻¹ s⁻¹ in the data set “purified protein [6]”.

B2: AgMCO2A (Anopheles gambiae) (protein)
chain: VRVQQHTSRRFKDESFGHDQTPAGSWWSSHLTEPPSNFYQATHGLLQTHPSVPSLKPVAGAPAAPGPSALPLSSRKSPTVSSAAALNSGFPSIANPNPRSPFRHLDFSTSATAELRRNPSLSAPDECARACREGEPPRICYYHFTVEYYTVLGAACQVCTPNATNTVWSHCQCVLADGVERGILTVNRMIPGPSIQVCENDRVVIDVENHMEGMELTIHWHGIWQRGTQYYDGVPFVTQCPIQQGNTFRYQWTGNAGTHFWHAHTGLQKLDGLYGSIVVRQPPSRDPNSHLYDFDLTTHIMLVSDWLHEDAAERYPGRLAVNTGQDPESLLINGKGQFRDPNTGFMTNTPLEIFTITPGRRYRFRMINAFASVCPAQVTIEGHALTVIATDGEPVHPAQVNTIISFSGERYDFVITADQPVGAYWIQLRGLGECGIKRAQQLAILRYARGPYQPASPPPTYDVGLPQGVVMNPLDAQCNVQRDDAICVSQLKNAKEIDRALLQDKPDVKIFLPFRFYLYRPEELFQPNTYNRFLVAPTGDHVISLIDEISYLSAPAPLLSQYDDINPEQFCNGDNRPADCGANCMCTHKVDIPLNAIVEVVLVDEVQQPNLSHPFHLHGYAYNVVGIGRSPDSNVKKINLKHALDLDRRGLLHRQYNLPPLKDTIAVPNNGYVVLRFRADNPGFWLFHCHFLFHIVIGMNLILQVGTHADLPPVPPNFPTCGDHLPPIN
Turning to B2, the Km in “purified protein [7]” (pH 5.5, 0.1 M sodium acetate) amounted to 300 µM; in “purified protein [8]” it was 1000 µM; in “purified protein [9]” (pH 7.5, 0.1 M sodium phosphate) it was 500 µM; in the data set “purified protein [10]”, 2000 µM. In addition, the kcat stood at 1.53 s⁻¹ in the data set “purified protein [7]” (pH 5.5, 0.1 M sodium acetate); 3.65 s⁻¹ in “purified protein [8]”; 0.8 s⁻¹ in the data set “purified protein [9]” (pH 7.5, 0.1 M sodium phosphate); 3.82 s⁻¹ in “purified protein [10]”. Further, the specificity constant (kcat/Km) in the data set “purified protein [7]” (pH 5.5, 0.1 M sodium acetate) turned out to be 5120 M⁻¹ s⁻¹; in the data set “purified protein [8]” it was 3650 M⁻¹ s⁻¹; in the data set “purified protein [9]” (pH 7.5, 0.1 M sodium phosphate), 1600 M⁻¹ s⁻¹; in “purified protein [10]” it was 1900 M⁻¹ s⁻¹.

B3: AgMCO2B (Anopheles gambiae) (protein)
chain: VRVQQHTSRRFKDESFGHDQTPAGSWWSSHLTEPPSNFYQATHGLLQTHPSVPSLKPVAGAPAAPGPSALPLSSRKSPTVSSAAALNSGFPSIANPNPRSPFRHLDFSTSATAELRRNPSLSAPDECARACREGEPPRICYYHFTVEYYTVLGAACQVCTPNATNTVWSHCQCVLADGVERGILTVNRMIPGPSIQVCENDRVVIDVENHMEGMELTIHWHGIWQRGTQYYDGVPFVTQCPIQQGNTFRYQWTGNAGTHFWHAHTGLQKLDGLYGSIVVRQPPSRDPNSHLYDFDLTTHIMLVSDWLHEDAAERYPGRLAVNTGQDPESLLINGKGQFRDPNTGFMTNTPLEIFTITPGRRYRFRMINAFASVCPAQVTIEGHALTVIATDGEPVHPVQVNTIISFSGERYDFVITADQPVGAYWIQLRGLGECGIKRAQQLAILRYARGPYQPASPPPTYDVGLPQGVVMNPLDAVCNVPRPDAVCVSNLRNAKKADKAVLSERPDVKIFLPFRFYFYRVEELFTPNTYNKFLVAPGGDHLISLIDEISYVSPPSPMLSQINDIPPEQFCNGDNRPPDCGPNCMCTHKVDIPLNAIVEVVLVDEVQQENLSHPFHLHGHAFHVIGMGRSPDSTVKKINLRHTLDLDRRGLLNRQFNLPPLKDTIAVPNNGYVVLRFRADNPGYWLFHCHFQFHIVIGMNLVVHIGTHADLPPVPPNFPRCGNHIPPIKYN
As to B3, the Km stood at 700 µM in the data set “purified protein [7]” (pH 5.0, 0.1 M sodium acetate); 2000 µM in “purified protein [8]”; 300 µM in “purified protein [9]” (pH 5.5, 0.1 M sodium acetate); 800 µM in “purified protein [10]”; 4000 µM in the data set “purified protein [11]”. For the same molecule, the kcat stood at 2.12 s⁻¹ in “purified protein [7]” (pH 5.0, 0.1 M sodium acetate); 6.35 s⁻¹ in the data set “purified protein [8]”; 1.05 s⁻¹ in the data set “purified protein [9]” (pH 5.5, 0.1 M sodium acetate); 4.2 s⁻¹ in the data set “purified protein [10]”; 2.98 s⁻¹ in “purified protein [11]”. Besides, the kcat/Km worked out at 3020 M⁻¹ s⁻¹ in the data set “purified protein [7]” (pH 5.0, 0.1 M sodium acetate); 3170 M⁻¹ s⁻¹ in “purified protein [8]”; 3500 M⁻¹ s⁻¹ in “purified protein [9]” (pH 5.5, 0.1 M sodium acetate); 5250 M⁻¹ s⁻¹ in “purified protein [10]”; 750 M⁻¹ s⁻¹ in “purified protein [11]”.

B4: phenoloxidase (prophenoloxidase from M. sexta hemolymph) (Manduca sexta) (protein)
chain 1: TDAKNNLLYFFDRPNEPCFMQKGEDKVVFEIPDHYYPDKYKSLSNTLSNRFGNEATKRIPIRNITLPNLEVPMQLPYNDQFSLFVPKHRTMAAKLIDIFMGMRDVEDLQSVCSYCQLRINPYMFNYCLSVAILHRPDTKGLSIPTFAETFPDKFMDSKVFLRAREVSNVVISGSRMPVNVPINYTANTTEPEQRVAYFREDIGINLHHWHWHLVYPFDSADRSIVNKDRRGELFYYMHQQIIGRYNVERMCNGLPQVKPFSDFSAPIEEGYFPKLDSQVASRTWPPRFAGSVFRNLDRTVDQVKIDVRKLFTWRDQFLEAIQKMAIKMPNGRELPLDEVTGIDMLGNLMESSIISPNRGYYGDLHNMGHVFAAYTHDPDHRHLEQFGVMGDSATAMRDPFFYRWHRFVDDVFNIYKEKLTPYTNERLDFPGVRVSSVGIEGARPNTLRTLWQQSTVELGRGLDFTPRGSVLARFTHLQHDEFQYVIEVNNTTGGNLMGTVRIFMAPKVDDNGQPMSFNKQRRLMIELDKFSQALRPGTNTIRRRSVDSSVTIPYERTFRNQSERPGDPGTAGAAEFDFCGCGWPHHMLIPKGTAQGYPVVLFVMISNWNNDRIEQDLVGSCNDAASYCGIRDRKYPDKQAMGYPFDRKMANDAATLSDFLRPNMAVRDCSIQFSDTTVERGQQG
chain 2: ADIFDSFELLYDRPGEPMINTKGEDKVLFELTEQFLTPEYANNGLELNNRFGDEEEVSRKIILKNLDKIPEFPKAKQLPNDADFSLFLPSHQEMANEVIDVLMSVTENQLQELLSTCVYARINLNPQLFNYCYTVAIMHRRDTGKVRVQNYAEIFPAKFLDSQVFTQAREAAAVIPKTIPRTPIIIPRDYTATDLEEEHRLAYWREDLGINLHHWHWHLVYPFSASDEKIVAKDRRGELFFYMHQQIIARYNCERLCNSLKRVKKFSDWREPIPEAYYPKLDSLTSARGWPPRQAGMRWQDLKRPVDGLNVTIDDMERYRRNIEEAIATGNVILPDKSTKKLDIDMLGNMMEASVLSPNRDLYGSIHNNMHSFSAYMHDPEHRYLESFGVIADEATTMRDPFFYRVHAWVDDIFQSFKEAPHNVRPYSRSQLENPGVQVTSVAVESAGGQQNVLNTFWMQSDVNLSKGLDFSDRGPVYARFTHLNHRPFRYVIKANNTASARRTTVRIFIAPKTDERNLPWALSDQRKMFIEMDRFVVPLSAGENTITRQSTESSLTIPFEQTFRDLSIQGSDPRRSELAAFNYCGCGWPQHMLVPKGTVGGVAYQLFVMLSNYELDKIEQPDGRELSCVEASMFCGLKDKKYPDARPMGYPFDRPSNSATNIEDFSAMSNMGLQDIVIKLSDVTEPNPRNPPA
For B4, in the data set “purified protein [12]”, the Km is 2000 µM and the catalytic constant (kcat) was determined as 6.02 s⁻¹.
